From paper PMC8786865 (Nature Communications, 2022)
Where a chain is given by its changes, count along the chain named. Where “and” joins values, the source holds several entries; their conditions need not be identical. Identical values can stand only once. Like-named read-outs stand apart in the source and are kept apart here.

B1: selected anti-SARS-CoV-2 spike antibody B2 (antibody, V domains shown)
VH: QVQLVQSGAEVKKPGASVKVSCKVSGYSFTDHSIHWVRQAPGKGLEWMGGINPYTGDTIYAQKFQGRVTMTEDTSTDTAYMELSSLKSEDTAVYYCARDAYSGSYPYYYYGMDVWGQGTTVTVSS
VL: DIQMTQSPSSVSASVGDRVTITCRASEGISNYLAWYQQKPGKAPKLLIYGTSDRASGIPSRFSGSGSGTDFTLTISSLQPEDFANYYCQQYSAFPWTFGGGTKVEIK
B2: E5 (antibody, V domains shown)
VH: EVQLVQSGAEVKKPGASVKVSCKVSGYSFTDHSIHWVRQAPGKGLEWMGGINPYTGDTIYAQKFQGRVTMTEDTSTDTAYMELSSLKSEDTAVYYCAKDGWGSLLNGIAVAGLDYWGQGTLVTVSS
VL: DIQMTQSPSSVSASVGDRVTITCRASQDISTYLAWYQQKPGKAPKLLIYASSNLASGVPSRFSGSGSGTDFTLTISSLQPEDFANYYCHQYATYPWGFGGGTKVEIK
B3: H7 (antibody, V domains shown)
VH: EVQLVQSGAEVKKPGASVKVSCKVSGYSFTDHSIHWVRQAPGKGLEWMGGINPYTGDTIYAQKFQGRVTMTEDTSTDTAYMELSSLKSEDTAVYYCARDGYDFWSGSYGMDVWGQGAQVTVS
VL: B2 VL with S30G, T31N, Y32H, A50G, S51V, N53E, L54R, A55P, G97T, G100D
B4: H5 (antibody, V domains shown)
VH: B1 VH with Q1E, R38H, A100G, S102Y, Y105G, P106T
VL: B2 VL with D28S, A50D, S51A, L54R, S56T, H89L, A92H, T93N, G97T
B5: G8 (antibody, V domains shown)
VH: B2 VH with Q6E, K98R
VL: B2 VL with D28S, S30G, T31S, Y32F, G97T
B6: E4 (antibody, V domains shown)
VH: QVQLVQSGAEVKKPGASVKVSCKVSGYSFTDHSIHWVRQAPGKGLEWMGGINPYTGDTIYAQKFQGRVTMTEDTSTDTAYMELSSLKSEDTAVYYCARDGYDFWSGSYGMDVWGQGTLVTVSS
VL: B2 VL with S30G, T31N, Y32H, G97T
B7: G9 (antibody, V domains shown)
VH: B6 VH with D102G, F103D, W104Y, S105R, S107L, Q115R, L118T
VL: B2 VL with S30G, T31N, Y32H, G97T
B8: A2 (antibody, V domains shown)
VH: QVQLVESGAEVKKPGASVKVSCKVSGYSFTDHSIHWVRQAPGKGLEWMGGINPYTGDTIYAQKFQGRVTMTEDTSTDTAYMELSSLKSEDTAVYYCARDGYCSGGSCYSFSGYGMDVWGQGTTVTVS
VL: B2 VL with S30G, T31N, Y32H, A92T, G97T
B9: #41 (antibody, V domains shown)
VH: QVQLVQSGAEVKKPGASVKVSCKVSGYTSPATIHWVRQAPGKGLEWMGGISPYKGDTIYAQKFQGRVTMTEDTSTDTAYMELSSLKSEDTAVYYCAKDSYYYDSSGSGLGGGFDYWGQGTLVTVSS
VL: B1 VL with E27R, G28D, N31S, T51A, D53T, I58V, Q89L, A93I, F94Y
B10: H9 (antibody, V domains shown)
VH: B1 VH with Q1E, Q6E
VL: B2 VL with D28N, S30D, Y32F, G97T, G100D
B11: #41 (antibody, V domains shown)
VH: B9 VH
VL: B1 VL with E27R, G28D, N31S, T51A, D53T, I58V, Q89L, A93I, F94Y

Legend:
[1] = molecular target: T1, SARS-CoV-2 spike receptor-binding domain (RBD) (SARS-CoV-2, Wuhan-Hu-1, UniProt P0DTC2); assay: SPR; array SPR (Carterra LSA), HC200M chip; IgG captured on immobilised anti-human Fc; antigen as analyte in a 7-point series, RBD 300 nM to 411 pM or trimer 100 nM to 137 pM, in 1x HBSTE with 0.5 mg/mL BSA; association 5 min, dissociation 11 min; one-site model; constants for the trimer are called avidities; conditions: both partners purified
T1 construct: also called SARS-CoV-2 RBD

[2] = molecular target: T1, SARS-CoV-2 spike receptor-binding …
[3] = molecular target: T2, SARS-CoV-2 spike receptor-binding domain (SARS-CoV-2, Wuhan-Hu-1, UniProt P0DTC2); assay: SPR; Carterra LSA array, HC200M chip; IgG captured on immobilised anti-human Fc; RBD as analyte, 7-point dilution series 300 nM to 411 pM in 1x HBSTE with 0.5 mg/mL BSA; association 5 min, dissociation 11 min; one-site binding model; two independent measurements; conditions: both partners purified
T2 construct: also called RBD; SARS-CoV-2 RBD

[4] = molecular target: SARS-CoV-2 spike protein receptor-binding domain (RBD) (SARS-CoV-2, UniProt P0DTC2); assay: cell-based or functional assay

Row | Binder | binding result [2] | further results
1 | B1 | – | binding result [1]: binds
2 | B2 | binds | –
3 | B3 | binds | –
4 | B4 | binds | –
5 | B5 | binds | –
6 | B6 | binds | –
7 | B7 | binds | –
8 | B8 | binds | –
9 | B9 | – | Kd [3]: 0.257 nM and 0.333 nM
10 | B10 | binds | –
11 | B11 | – | SARS-CoV-2 pseudovirus IC50 (neutralisation, HeLa-hACE2 cells); pair blocked: ACE2 with RBD [4]: 3.7 ng/mL
